Measured values published in paper PMC10267100 (Communications Biology, 2023).
Substitutions are numbered along the chain they refer to. Numbers in names are those of the source. Square brackets hold non-standard residues; d marks the D form. Ends that are not written are not given here. pY = N[C@@H](Cc1ccc(OP(=O)(O)O)cc1)C(=O)O

T1: PTP1B (Homo sapiens, UniProt P18031)
T1 construct: human PTP1B phosphatase domain (residues 2–321) with a GST tag; GST (cleaved yes); made in house; host or cells: E. coli BL21 (DE3)
T1 sequence (P18031 2-321): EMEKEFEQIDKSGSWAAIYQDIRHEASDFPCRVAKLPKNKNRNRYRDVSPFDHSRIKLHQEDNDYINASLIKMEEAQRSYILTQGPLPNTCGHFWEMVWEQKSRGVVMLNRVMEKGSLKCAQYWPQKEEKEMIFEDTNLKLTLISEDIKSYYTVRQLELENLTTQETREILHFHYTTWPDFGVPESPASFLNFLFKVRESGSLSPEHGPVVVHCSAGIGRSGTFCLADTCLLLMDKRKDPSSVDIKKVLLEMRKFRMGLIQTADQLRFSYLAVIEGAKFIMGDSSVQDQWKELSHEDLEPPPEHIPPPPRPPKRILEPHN

T2: IRK pYpY activation loop peptide
T2 peptide: ETD[pY][pY]RKGGKGL

T3: PTP1B phosphatase domain (residues 2-321) C215A/D181A/Q262A triple mutant (human, UniProt P18031 2-321, D181A | C215A | Q262A)
T3 construct: Protein tyrosine phosphatase 1B, human, phosphatase domain, residues 2-321, D181A/C215A/Q262A; pPROEX vector; no cleavage of the His tag is told; also called D181A/Q262A/C215A; PTP1B D/Q/C; source: E. coli BL21 (DE3), purified (nickel resin, size exclusion)
T3 sequence (looked up): T1 sequence (P18031 2-321) with D180A, C214A, Q261A

T4: PTP1B phosphatase domain (residues 2-321) D181A/Q262A (human, UniProt P18031 2-321, D181A | Q262A)
T4 construct: Protein tyrosine phosphatase 1B, human, phosphatase domain, residues 2-321, D181A/Q262A; pPROEX vector; no cleavage of the His tag is told; also called PTP1B D181A/Q262A; PTP1B D/Q; source: E. coli BL21 (DE3), purified (nickel resin, size exclusion)
T4 sequence (looked up): T1 sequence (P18031 2-321) with D180A, Q261A

B1: PTP1B phosphatase domain (residues 2-321) R47A (enzyme)
chain: T1 sequence (P18031 2-321) with R46A
B2: human PTP1B phosphatase domain (residues 2-321), wild type (enzyme, UniProt P18031 2-321, looked up)
chain: T1 sequence (P18031 2-321)
B3: JAK2 pYpY activation loop peptide (peptide)
peptide: VLPQDKE[pY][pY]KVKEPGE
notes: printed as VLPQDKE[pY][pY]KVKEPGE; In the crystal with PTP1B D181A/Q262A the peptide is seen as the dephosphorylated product; source: synthetic peptide
B4: TYK2 pYpY activation loop peptide (peptide)
peptide: VPEGHE[pY][pY]RVREDGD
notes: printed as VPEGHE[pY][pY]RVREDGD; In the crystal with PTP1B D181A/Q262A the peptide is seen as the dephosphorylated product; source: synthetic peptide
B5: JAK3 pYpY activation loop peptide (peptide)
peptide: LLPLDKD[pY][pY]VVREPGQ
notes: printed as LLPLDKD[pY][pY]VVREPGQ; In the crystal with PTP1B D181A/Q262A the peptide is seen as the dephosphorylated product; also called JAK3 peptide; source: synthetic peptide
B6: JAK1 pYpY activation loop peptide (peptide)
peptide: AIETDKE[pY][pY]TVKDDLD
notes: printed as AIETDKE[pY][pY]TVKDDLD; In the crystal with PTP1B D181A/Q262A the peptide is seen as the dephosphorylated product; also called JAK1 peptide; source: synthetic peptide

How the values were obtained:
PTP1B [1] = details: peptide with Phe in the −1 position; cited from earlier work
PTP1B [2] = molecular target: T1, PTP1B; assay: 1H NMR dephosphorylation of activation loop peptides; type: biochemical; details: bisphosphorylated peptide as substrate, WT PTP1B, Fig. 6c
Source text: A Michaelis-Menten analysis of dephosphorylation of JAK2 and IRK activation loop peptides indicated an enhanced dephosphorylation rate for both peptides when in the bisphosphorylated state (Fig. 6a), consistent with previous data on IRK[7]. […] Using ^1H NMR we then measured the dephosphorylation of individual YpY, pYY and YY peptides over time (Supplementary Fig. S5), and similarly, observed an overall preference for bisphosphorylated peptides, however JAK2 YpY was dephosphorylated at a similar rate as the pYpY peptides, highlighting again the preference for this residue by PTP1B (Fig. 6).
Fig. 6 PTP1B preferentially targets different phosphotyrosines in the JAK2 and IRK activation loops. a Michaelis–Menten analysis of PTP1B-induced dephosphorylation via the malachite green assay. Data are from three independent experiments, error bars are SEM. b Dephosphorylation of mono- and bisphosphorylated peptides over time as measured by 1H NMR to determine reaction rate (shown as s-1). c 1H NMR was used to track the dephosphorylation of JAK2 and IRK bisphosphorylated activation loop peptides over time. […]
(§1) Specifically, we measured the appearance of the individual YpY, pYY and YY products over time (Supplementary Fig. S6). […]
0.5 mg of JAK2 or IRK pYpY, pYY and YpY peptides were dissolved in 500 μl of 20 mM Tris (pH 7.5), 2 mM TCEP, and 100 mM NaCl. […] Data was analyzed using TopSpin v3.2 (Bruker). […]

PTP1B R47A = assay: 1H NMR dephosphorylation of bisphosphorylated activation loop peptides; type: biochemical, human; details: bisphosphorylated peptide as substrate, PTP1B R47A mutant
Source text: Fig. 6 PTP1B preferentially targets different phosphotyrosines in the JAK2 and IRK activation loops. a Michaelis–Menten analysis of PTP1B-induced dephosphorylation via the malachite green assay. Data are from three independent experiments, error bars are SEM. b Dephosphorylation of mono- and bisphosphorylated peptides over time as measured by 1H NMR to determine reaction rate (shown as s-1). c 1H NMR was used to track the dephosphorylation of JAK2 and IRK bisphosphorylated activation loop peptides over time. […] Arg47 has an effect on the preference for dephosphorylation of the second phosphotyrosine in JAK2, with loss of selectivity for dephosphorylation of either phosphotyrosine in the R47A PTP1B mutant. […]
as §1
0.5 mg of JAK2 or IRK pYpY, pYY and YpY peptides were dissolved in 500 μl of 20 mM Tris (pH 7.5), 2 mM TCEP, and 100 mM NaCl. […] To start the dephosphorylation reaction, 2 nM PTP1B was added to each sample and multiple 1H NMR spectra were recorded over the course of 1 h. Data was analyzed using TopSpin v3.2 (Bruker). The concentration of each species of ALP (pYpY, pYY, or YpY) in the reaction was calculated by integrating the area under the peak and normalising these values to the starting peptide concentration.

[3] = molecular target: B3
[4] = molecular target: B3; assay: cell-based or functional assay
[5] = molecular target: T2, IRK pYpY activation loop peptide; assay: cell-based or functional assay
[6] = molecular target: T3, PTP1B phosphatase domain (residues …); assay: crystal structure; catalytically dead PTP1B D181A/Q262A/C215A co-crystallised with a 2-fold excess of phosphopeptide; substrate-bound; details: both partners purified
[7] = molecular target: T4, PTP1B phosphatase domain (residues …); assay: crystal structure; PTP1B D181A/Q262A co-crystallised with a 2-fold excess of bisphosphorylated peptide; the tyrosyl-peptide product and free phosphate are seen in the active site; details: both partners purified

binding result [6] | binding result [7] | Molecule | further results
 |  | ELEFpYMDYE [peptide of PDB 1EEO with Phe in the −1 position, literature PTP1B substrate] | substrate quality for PTP1B (PTP1B [1]): potent PTP1B substrate
 |  | VLPQDKE[pY][pY]KVKEPGE [JAK2 pYpY] | rate of dephosphorylation of the second pTyr relative to the first (PTP1B [2]; 1H NMR tracking of pYY and YpY products): ~ 3 fold; preference for dephosphorylation of the second pTyr over the first (PTP1B R47A): 1.3 fold
 |  | ETD[pY][pY]RKGGKGL [IRK pYpY] | preference for dephosphorylation of the first pTyr over the second (PTP1B [2]; 1H NMR tracking of products): ~ 1.6 fold
 |  | B1 | preference for dephosphorylation of the second pTyr against the first in the bisphosphorylated peptide, followed by 1H NMR [3]: 1.3 fold
 |  | B2 | rate of dephosphorylation of the second pTyr against the first in the bisphosphorylated peptide, followed by 1H NMR [4]: ~3 fold; preference for dephosphorylation of the first pTyr against the second in the bisphosphorylated peptide, followed by 1H NMR [5]: ~1.6 fold
binds | binds | B3 | 
binds | binds | B4 | 
binds |  | VLPQDKEY[pY]KVKEPGE (source: synthetic peptide) [JAK2 YpY activation loop peptide] | 
 | binds | B5 | 
 | binds | B6 | 
binds |  | VLPQDKE[pY]YKVKEPGE (source: synthetic peptide) [JAK2 pYY activation loop peptide] | 
